Among the data in article PMC6104973 are Kd values, retold here.

In one experiment the target is ALX148 (human). In words: SPR; hFcRn flowed (0-5000 nM) over ALX proteins captured on a GLC chip with immobilised human CD47 ECD; 25°C; PBS pH 5.8, 0.01% Tween-20; equilibrium analysis; apparent. On the technique in general: In SPR one partner is held on a chip, and binding of the other changes the refractive index at the surface.
A further experiment deals with CD47 (Homo sapiens) (UniProt Q08722). Conditions: cited from earlier work.
Chain of UniProt Q08722 (Q08722 19-323): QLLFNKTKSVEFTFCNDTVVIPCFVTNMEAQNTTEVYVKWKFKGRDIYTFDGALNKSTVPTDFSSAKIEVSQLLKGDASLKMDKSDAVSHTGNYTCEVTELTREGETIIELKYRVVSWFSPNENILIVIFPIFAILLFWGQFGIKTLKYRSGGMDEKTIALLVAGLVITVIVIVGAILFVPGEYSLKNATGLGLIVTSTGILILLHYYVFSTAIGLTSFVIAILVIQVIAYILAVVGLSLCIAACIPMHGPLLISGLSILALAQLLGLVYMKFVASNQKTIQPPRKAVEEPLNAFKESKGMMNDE

Regarding “human neonatal Fc receptor (FcRn) (from UniProt P55899 24-297)”, in the experiment with ALX148 (human), the Kd is 580 nM.

On to SIRPα (from UniProt P78324), for which the Kd with CD47 (Homo sapiens) was 1000 nM.
